Results taken from paper PMC8752837, “Structural basis of BAK activation in mitochondrial apoptosis initiation” (Nature Communications, 2022).

Molecular target: T1, GST-BAK (human)
T1 chain: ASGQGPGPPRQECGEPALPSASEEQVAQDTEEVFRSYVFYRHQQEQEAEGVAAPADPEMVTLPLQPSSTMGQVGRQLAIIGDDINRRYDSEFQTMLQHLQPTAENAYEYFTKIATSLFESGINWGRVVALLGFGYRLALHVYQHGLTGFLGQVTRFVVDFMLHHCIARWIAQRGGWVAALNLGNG
Experiment: fluorescence polarisation; competitive: displacement of 10 nM BID BH3 SAHB-F from 1 µM GST-BAK by peptides at 500-0.2 µM; 50 mM Tris-HCl pH 7.5, 50 mM KCl, 0.1 mg/mL BSA, 2 mM DTT, 0.005% Tween-20; 60 min at RT
Settings: both partners purified

IC50: 27.4 ± 16.4 µM
Binder: Ac-EDWIRNIARHLAQVGDSMDRSI-NH2 [W(0') BID BH3 peptide]
